Data as given in the supplement of paper PMC9170038.

Tested on: MS2 coat protein
Experiment: apparent KD of MS2 coat protein; higher = weaker reporter binding
Conditions: Eterna round: R107
Outline: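 SNAP-549-labelled MS2 coat protein was titrated onto designed RNA switches that had been transcribed on-chip from Illumina sequencing clusters. Amounts doubled from 0.7 or 1.5 nM to 3 µM in 100 mM Tris-HCl pH 7.5, 80 mM KCl, 4 mM MgCl2, with constant ligand or without. Apparent KD is the median per design of normalised cluster binding-curve fits.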

[1] = input ligand: theophylline 20 uM
[2] = input ligand: tryptophan 2.4 mM
[3] = input ligand: theophylline 2 mM

Sequence	apparent KD of MS2 coat protein (input ligand: arginine 13.2 mM)	apparent KD of MS2 coat protein [1]	apparent KD of MS2 coat protein [2]	apparent KD of MS2 coat protein (input ligand: none)	apparent KD of MS2 coat protein [3]
GGAAUUAAGACUGAUACCAGUCAAGAUAAUCAUAAGAAUAAACAUGAGGAUCACCCAUGUGACCCUUGGCAGCAGACUAAUACCG [Same State Theophylline B GF 26]	38.5 nM	51.1 nM	39.2 nM		
GGACUAACCAGAAGGAGCGACGCAAGCAGAAACUGCAAUCCUCCGCACGAGGAUCACCCGUGUCAGGUAGGUCGCUGGUUAGUCG [ArgBX 28]	21.6 nM	38.4 nM	29.2 nM	28.2 nM	30.1 nM
GGACUAACCUGAAGGAGCGACACGCACAAAGUGCAAAUUCCUCCACACGAGGAUCACCCGUGUCAGGUAGGUCGCAGGUUAGUCG [ArgBX 28]	24.3 nM	30.8 nM	29.1 nM	23 nM	23.7 nM
GGAGCUACGUCGGCCGCCACUAGCGGUAAUUACGUGUACAUGAGGAUCACCCAUGUAAUAUGGACUAGGACCGGGACGUAGCUCC [Salmon]	10.6 nM	21.8 nM	12.2 nM	13.3 nM	13.7 nM
GGAGUCGGCACGGCCGCCACUGCGGUGGUGUGACAUGAGGAUCACCCAUGUUGUCAUGCGGCCCUUAGGACCGGGUGGCGGUUCC [#1 Exclusion - Tryptophan B Attempt #22 (HarryS)]	28.4 nM	76.1 nM		58.7 nM	82.6 nM
GGAUAGGACACGGCCGCCACUACCUAGGAUACUAGCAACAUUUGGGUACAUGAGGAUCACCCAUGUAGGACCGGGUGUCCUAUCG	31.9 nM	34.2 nM	124 nM	25.3 nM	28.4 nM
GGAUAGGACAGAAGGAGCGACAUGGCGACGAAAGUCGAAACUUCACAUGAGGAUCACCCAUGUCAGGUAGGUCGCUGUCCUAUCG [ArgXB 7 #MS2Gate #StaticStem]	48.8 nM	63.8 nM	47.1 nM	48.9 nM	55.7 nM
GGCAAGCGAGACAUGAGGAUCACCCAUGUUCGAGGACCGGUACGGCCGCCACUCGGUGGACUCAUGGUAAAGCCGGUGAGCCAAA [AK 1 SS Trypt (A)]	27.4 nM	44.8 nM			38 nM
GGCACAUGUGGAAGGAGCGUCGUACGAGCUACAUGAGGAUCACCCAUGUCGGUUAGUGUCCGACAGGUAGGUCGCCACAUUUAAC [Isiser]	114 nM	235 nM	195 nM	374 nM	551 nM
GGCACCAGGAGAAGGAGCGUGAAGACAUGAGGAUCACCCAUGUAGAGGCCCGGACCGGGUUCGCAGGUAGGUCGCUCCUGGUGCC [#1 Same State - Arginine B Attempt #15 (HarryS)]	10 nM	17.9 nM	16.9 nM	15.6 nM	23 nM
GGCCUAUGGCGCGAUACCAGCUUGAGUGUACUGGCCAGGUACAUGAGGAUCACCCAUGUAAGCCCUUGGCAGCGCGUCAUAGGCC [#1 Exclusion - Theophylline B Attempt #23 (HarryS)]	8.91 nM	17.9 nM	9.74 nM	9.95 nM	32.2 nM
GGCUACAUGAGGAUCACCCAUGUUUCUCGUCGAGGACCGGUACGGCCGCCACUCGUUGUUGGGACUCAGUAUCAGUCGUUAGUUU [theeternabot_sameState_MS2_Trp_A_36]	23.8 nM	34.3 nM			40.2 nM
GGCUCCAGCCGAAGGAGCGCUAGAAGGUGACAUGAGGAUCACCCAUGUGUGUGAUGUGGCUAGCAGGUAGGUCGCGGAGGAGCUU [Exclusion - Arginine B (Freestyle 19)]	62.5 nM	108 nM	71.1 nM	64.5 nM	90.6 nM
GGGAAAGGAGAAGAUACCAGCCGCCUCACAAGUCUACACUACAUGAGGAUCACCCAUGUGGGCCCUUGGCAGCUUGACCGCGAAA [theeternabot_exclusion_MS2_Theo_B_20]	23.2 nM	47.7 nM	39.3 nM	27.4 nM	42 nM
GGGAAUGAACGUGAUACCAGAGAUCCGGUCUCCGUCAAUAUACAUGAGGAUCACCCAUGUCUCCCUUGGCAGCACCGUCAUCGGG [Exclusion Theophylline B GF 28]	14.3 nM	20.4 nM	14.5 nM		
GGGACAUGAGGAUCACCCAUGUACCGGUCCCGAGGACCGGUACGGCCGCCACUCGAUGACCUCAUAGUCUACUUGAGCAGUAGAC [Geeson]	37.7 nM	143 nM	100 nM	22.1 nM	38.6 nM
GGGAGAUAGGCGGCCGCCACUGAUUUUCAUAUAUAUAUAACAUGAGGAUCACCCAUGUAGAUAUACAGGACCGGGCCUAUUUUUU [aaaE]	19.1 nM	22.5 nM			19.7 nM
GGGCAAGAGGGAAGGAGCGUCAGCUGAGUAACAUGAGGAUCACCCAUGUAGCACAUAGUGUGACAGGUAGGUCGCCCUCUGCCCU [SS-ArgB6]	12.6 nM	10.4 nM	12.5 nM	8.97 nM	8.42 nM
GGGCAAGAGGGAAGGAGCGUCAGCUGAGUCACAUGAGGAUCACCCAUGUCGCACAUAGUGUGACAGGUAGGUCGCCCUCUGCCCU [Zaistiqu]	74.3 nM	158 nM	133 nM	131 nM	201 nM

Sequence	apparent KD of MS2 coat protein (input ligand: arginine 13.2 mM)	apparent KD of MS2 coat protein [1]	apparent KD of MS2 coat protein [2]	apparent KD of MS2 coat protein (input ligand: none)	apparent KD of MS2 coat protein [3]
GGGCACAUGAGGAUCACCCAUGUCCAACGGCGAGGACCGGUACGGCCGCCACUCGGUAUAAGCUUCGAAAAGGAGGAUCCUGCAG [theeternabot_sameState_MS2_Trp_A_35]	20.4 nM	56.3 nM			47.7 nM
GGGCCCGGGCGCGAGCCCGGGCCCAUUGAUACCAGUGAAUGUGUGCGCCCUUGGCAGCGAAUCCUAACAUGAGGAUCACCCAUGU [5.E]	16.2 nM	117 nM	48.3 nM	28.6 nM	50.4 nM
GGGCGCGAGACGGCCGCCACUACACAUGAGGAUCACCCAUGUAUGGCAACAUGAGGAUCUGCCAUUAGGACCGGGUCAGGGCCCA	29.3 nM	53.4 nM	38.5 nM	31.2 nM	41.8 nM
GGGCGCGUGGACUGGCGUGCUCCGCUCCGUCGAGGACCGGUACGGCCGCCACUCGACAUGAGGAUCACCCAUGUGUGCGCUCGCG [#1 Exclusion - Tryptophan A Attempt #18 (HarryS)]	14.5 nM	194 nM	7.36 nM	21 nM	40.4 nM
GGGUACAUCGCGGCCGCCACUCAUGUAAAUGCAUGAGGAACACCCAUGCCGAUGGAGACAUCGGAGAGGACCGGGUGAUGUACCG	66 nM	157 nM	93.7 nM	110 nM	148 nM
GGGUACAUCGCGGCCGCCACUGGUGUAAAUACAUGAGGAUCACCCAUGUCGAUGGAGACAUCGGGUAGGACCGGGUGAUGUACCG	19.8 nM	37.3 nM	24.3 nM	21.9 nM	30.2 nM
GGGUACAUCGCGGCCGCCACUUGUGUAAAUACAUGAGGAUCACCCAUGUCGAUGGAGACAUCGGCAAGGACCGGGUGAUGUACCG	107 nM	172 nM	15.2 nM	130 nM	146 nM
GGGUACAUCGCGGCCGCCACUUUUGUAAAUACAUGAGGAUCACCCAUGUCGAUGGAGACAUCGGUGAGGACCGGGUGAUGUACCG	196 nM	523 nM	295 nM	624 nM	721 nM
GGGUCCGUCGGAAGGAGCGACAUGAGGAUCACCCAUGUCUCCCGUUAUGGGAGUUCUUUAGGUCAGGUAGGUCGCCGGCGGGUCC [#1 Exclusion - Arginine B Attempt #13 (Inspired by Omei)]	65 nM	196 nM	119 nM	141 nM	164 nM
GGUAUUGGAACAGAUACCAGUAUCUGUUGAUCCUACAUGAGGAUCACCCAUGUUAGAAAGUACCCUUGGCAGCUGUAAUAAUGCC [Theo B Ex t1]	52.7 nM	76.6 nM	49.4 nM		
GGUCAGCAGUCGGCCGCCACUAGUAUACAUGAGGAUCACCCAUGUCCCUUGCGCCUCACCGAUUUUAGGACCGGGACACUGCCUG [theeternabot_exclusion_MS2_Trp_B_9]	25.1 nM	42 nM			40.2 nM
GGUCUCUGGAGCGAUACCAGCUUAAUCGUACUGGCCAGGUACAUGAGGAUCACCCAUGUAAGCCCUUGGCAGCGCUCCAGAGACC [#1 Exclusion - Theophylline B Attempt #11 (HarryS)]	6.02 nM	16.4 nM	10.5 nM	12.9 nM	14.4 nM
GGUCUCUGGAGCGAUACCAGCUUGAGUGUACUGGCCAGGUACAUGAGGAUCACCCAUGUAAGCCCUUGGCAGCGCUGCAGAGACC [#1 Exclusion - Theophylline B Attempt #16 (HarryS)]	9.75 nM	15 nM	11.2 nM		
GGUGGCUGGACUGAUACCAGCCACCACCGAUAGACCACAUGAGGAUCACCCAUGUUGGGUGGCCCUUGGCAGCAGUCUAGCUGCC [#1 Same State - Theophylline B Attempt #11 (HarryS)]	231 nM	727 nM	441 nM		
GGUUACUCUACGGCCGCCACUGAUUAUUUAUAAUCCUGUACAUAAACAUGAGGAUCACCCAUGUACAGGACCGGGUAGUGUAACC [Tryptophan B 11]	29.9 nM	37.7 nM			33.5 nM
GGUUGAAACUGAAGGAGCGAGAUGACAACAUUGGGUCUAACAUGAGGAUCACCCAUGUAAUCUCAGGUAGGUCGCAGUGACCAAA [Exclusion Arginine B GF 14]	38.1 nM	41.5 nM	43.1 nM	50.2 nM	46.7 nM
GGUUUAUAUAUAUAUAUAUAGAUUACUGAAGGAGCGGGAAAUAACCCAGGUAGGUCGCAGAGAUCCACAUGAGGAUCACCCAUGU [!0.E]	37.1 nM	55.3 nM	36.8 nM	40.2 nM	54.3 nM
GUAAAUGUGACGGAUACCAGCGUGUUGUAGAACAUGAGGAUCACCCAUGUAGUGAUCAUGCGCCCUUGGCAGCUGGUAUGUUUGU [7.aB]	90.7 nM	504 nM	684 nM		
